# According to article PMC8503845:
# B1: Ubx2-6xGly-3xFLAG (natural protein)
# chain: MPVVNHEDSEFHLSHTEEDKLNEFQVITNFPPEDLPDVVRLLRNHGWQLEPALSRYFDGEWKGEPDQMGEPTQTSTPMAETLVPPALGPRPLLFTASLPVVRPLPANFRNDFRTIGLNGRSNTVWSMFESFSYDGNPFLFILLLIPRIINRLSATIFTFFCTLLSLHSISGGGNSGKPKISKVPKAPTRETHIPLAEILGDTKDKDAFCELKSFKPDISFNEALRIAKEEFKFMLLILVGDTYDTDTDTVDVNSKLLLEKILLNKKTLQYLRKIDNDLIIYLKCVHELEPWLVARQLGVRNTPEIFLIANVANKASHSETLPSQRLSILGKLKVNSLNRFLQSLTNVVEKYTPELVVNKTEMHELRMSREIKKLQEDAYKKSLEMDRIKAIEKEKSLKHAQDLKLNSTARQLKWLKACIDEIQPFETTGKQATLQFRTSSGKRFVKKFPSMTTLYQIYQSIGCHIYLAVYSSDPAEWSNALQDKIRQLSADDDMLCFKEGQLETATATTIEELGHIINNELTSFDLERGKLEFDFELVSPFPKYTVHPNEHMSVDQVPQLWPNGSLLVEALDEEDEEDEENEEQ
# Molecular target: SZ*-GFP-Ub4 (HA-tagged) (UniProt P0CG63)
# Assay: co-IP
binder,measurement,value
B1,fold increase of binding relative to the Ubx2-SZ*-GFP complex,10 fold
